Data as given in PMC8140593, “Chemical synthesis of peptidoglycan mimetic–disaccharide-tetrapeptide conjugate and its hydrolysis by bacteriophage T5, RB43 and RB49 L-alanyl-D-glutamate peptidases” (PeerJ, 2021).

Experiment: Solubility in water
Type: physicochemical

Structure (SMILES): CC(=O)N[C@H]1[C@H](O[C@H]2[C@H](O[C@H](C)C(=O)N[C@@H](C)C(=O)N[C@H](CCC(=O)N[C@@H](C)C(=O)N[C@H](C)C(=O)O)C(=O)O)[C@@H](NC(C)=O)C(O)O[C@@H]2CO)O[C@H](CO)[C@@H](O)[C@@H]1O (stereo partly drawn) [GMTP, N-acetylglucosaminyl-β(1-4)-N-acetylmuramoyl-l-alanyl-γ-d-glutamyl-l-alanyl-d-alanine]
- solubility in water: water soluble
